Patent US8785384B2, “Peptide synthesis” (Chemical & Biopharmaceutical Laboratories of Patras, priority 2010, dated 2014)
Where no end group is shown, it is not given here. [ ]: non-standard residue; d: D form. Met(O) = CS(=O)CC[C@H](N)C(=O)O

Columns and labels:
[1] = background statement on earlier attempts at synthetic human relaxins; cited from earlier work
[2] = Solubility of relaxin B-chains (methionine sulphoxide vs non-oxidised); assay type: physicochemical, human; conditions: compared with RLX1B and RLX2B respectively / non-oxidised analogue

Substance | solubility of non-oxidised B-chain [1] | solubility relative to the corresponding non-oxidised B-chain [2]
RLX1B: Chain B of human relaxin-1, SEQ ID NO: 3 (KWKDDVIKLCGRELVRAQIAICGMSTWS; listed as Homo sapiens) | highly insoluble or hydrophobic | –
RLX2B: Chain B of human relaxin-2, SEQ ID NO: 5 | highly insoluble or hydrophobic | –
Met(O)^24-RLX1B: Met(O)^24-human relaxin 1 B-chain, SEQ ID NO: 6; linear (compound 9) or cyclic (compound 10) form not specified (KWKDDVIKLCGRELVRAQIAICG[Met(O)]STWS; not fully specified; cysteine pairing not given here; listed as Homo sapiens) | – | higher solubility
Met(O)^25-RLX2B: Met(O)^25-human relaxin 2 B-chain, SEQ ID NO: 7; linear (compound 13) or cyclic (compound 14) form not specified | – | higher solubility
